From paper PMC11024197 (Nature Communications, 2024)
Substitutions are numbered along the chain they refer to. Numbers in names are those of the source. Where “and” joins values, the source holds several entries; their conditions need not be identical. Equal values may be shown once.

B1: PEX13 C-terminal peptide (351-403) with WT FxxxF motif (peptide)
chain: YGGQQQSFTNPTLTKGATVADSLDEQEAAFESVFVETNKVPVAPDSIGKDGEKQDL
notes: three residues added before residue 351; main text and some legends say 350-403; also called PEX13 FxxxF; FxxxF peptide (350-403); source: E. coli BL21 (DE3), purified (Ni-NTA, SUMO cleavage, reverse Ni-NTA, SEC); not shown: His6-SUMO, N-terminal, cleaved
B2: PEX13 C-terminal peptide (351-403) with the FxxxF motif replaced by the PEX5 W4 motif (peptide)
chain: B1 chain with F30W, E31Y, S32D, V33E, F34Y
notes: three residues added before residue 351; also called FF/W4; source: E. coli BL21 (DE3), purified (Ni-NTA, SUMO cleavage, reverse Ni-NTA, SEC); not shown: His6-SUMO, N-terminal, cleaved
B3: PEX5 W1 peptide (peptide)
peptide: ALSENWAQEFLAAGD
notes: 15-mer with the W1 (di)aromatic motif of human PEX5; source: synthetic peptide, bought: PSL (Peptide Specialty Laboratories GmbH)
B4: PEX14 NTD (1-104) (domain or fragment, human, UniProt O75381 1-104, looked up)
chain: MASSEQAEQPSQPSSTPGSENVLPREPLIATAVKFLQNSRVRQSPLATRRAFLKKKGLTDEEIDMAFQQSGTAADEPSSLGPATQVVPVQPPHLISQPYSPAGS
notes: human PEX14, N-terminal domain, residues 1-104; also called PEX14 1-104; source: E. coli BL21 (DE3), purified (Ni-NTA, SUMO cleavage, reverse Ni-NTA, SEC); not shown: His6-SUMO, N-terminal, cleaved
B5: PEX5 W5 peptide (peptide)
peptide: AQAEQWAAEFIQQQG
notes: 15-mer with the W5 (di)aromatic motif of human PEX5; source: synthetic peptide, bought: PSL (Peptide Specialty Laboratories GmbH)
B6: PEX5 W6 peptide (peptide)
peptide: GTSDAWVDQFTRPVN
notes: 15-mer with the W6 (di)aromatic motif of human PEX5; source: synthetic peptide, bought: PSL (Peptide Specialty Laboratories GmbH)
B7: PEX5 W7 peptide (peptide)
peptide: AEAHPWLSDYDDLTS
notes: 15-mer with the W7 (di)aromatic motif of human PEX5; source: synthetic peptide, bought: PSL (Peptide Specialty Laboratories GmbH)
B8: PEX13-CTR double cysteine mutant I333C/A376C (IA/CC) (domain or fragment, human, UniProt Q92968 261-403, looked up)
chain: VTDSINWASGEDDHVVARAEYDFAAVSEEEISFRAGDMLNLALKEQQPKVRGWLLASLDGQTTGLIPANYVKCLGKRKGRKTVESSKVSKQQQSFTNPTLTKGATVADSLDEQEACFESVFVETNKVPVAPDSIGKDGEKQDL
notes: the two states are told apart by the assay; 15N-labelled; also called PEX13 CTR IA/CC; PEX13-CTR IA/CC; source: E. coli BL21 (DE3), purified (Ni-NTA, SUMO cleavage, reverse Ni-NTA, SEC); not shown: His6-SUMO, N-terminal, cleaved
B9: PEX13 SH3 domain (residues 261-346) (domain or fragment, human, UniProt Q92968 261-346, looked up)
chain: VTDSINWASGEDDHVVARAEYDFAAVSEEEISFRAGDMLNLALKEQQPKVRGWLLASLDGQTTGLIPANYVKILGKRKGRKTVESS
notes: 15N-labelled in the NMR titrations, unlabelled in ITC; source: E. coli BL21 (DE3), purified (Ni-NTA, SUMO cleavage, reverse Ni-NTA, SEC); not shown: His6-SUMO, N-terminal, cleaved
B10: PEX14 NTD (1-104) (domain or fragment, human, UniProt O75381 1-104, looked up)
chain: B4 chain
notes: human PEX14 N-terminal domain, residues 1-104; also called PEX14 (1-104); source: E. coli BL21 (DE3), purified (Ni-NTA, SUMO cleavage, reverse Ni-NTA, SEC)
B11: PEX13 SH3 domain (domain or fragment, human)
chain: B9 chain
notes: the SH3-CTR construct begins at 261 and the crystallised chimeras end the SH3 part at 346; source: E. coli BL21 (DE3), purified (Ni-NTA, SUMO cleavage, reverse Ni-NTA, SEC)
B12: PEX13 FxxxF peptide (residues 350-403) (domain or fragment, human, UniProt Q92968 350-403, looked up)
chain: KQQQSFTNPTLTKGATVADSLDEQEAAFESVFVETNKVPVAPDSIGKDGEKQDL
notes: also called Pex13_FxF; source: E. coli BL21 (DE3), purified (Ni-NTA, SUMO cleavage, reverse Ni-NTA, SEC)
B13: PEX5 W1 peptide (peptide)
peptide: ALSENWAQEFLAAGD
notes: 15-mer with the W1 WxxxF motif of human PEX5; source: synthetic peptide, bought: PSL (Peptide Specialty Laboratories)
B14: PEX14 NTD (1-104) (domain or fragment, human, UniProt O75381 1-104, looked up)
chain: B4 chain
notes: human PEX14 (UniProtKB O75381), N-terminal domain, residues 1-104; also called PEX14 (1-104); source: E. coli BL21 (DE3), purified (Ni-NTA, SUMO cleavage, reverse Ni-NTA, SEC)
B15: PEX5 W5 peptide (peptide)
peptide: AQAEQWAAEFIQQQG
notes: 15-mer with the W5 WxxxF motif of human PEX5; source: synthetic peptide, bought: PSL (Peptide Specialty Laboratories)
B16: PEX5 W6 peptide (peptide)
peptide: GTSDAWVDQFTRPVN
notes: 15-mer with the W6 WxxxF motif of human PEX5; source: synthetic peptide, bought: PSL (Peptide Specialty Laboratories)
B17: PEX5 W7 peptide (peptide)
peptide: AEAHPWLSDYDDLTS
notes: 15-mer with the W7 WxxxY motif of human PEX5; source: synthetic peptide, bought: PSL (Peptide Specialty Laboratories)

Tests used:
Settings in all cases: both partners purified
[1] = target: B9; test: ITC; PEX13 SH3 (35-48 µM) in the cell, titrated with peptide; 25 °C; 20 mM Tris pH 7.5, 50 mM NaCl; one-site binding model; triplicates
[2] = target: B4; test: ITC; PEX14 NTD (1-104) (20-60 µM) in the cell, titrated with PEX5 W peptides or W0 (0.4-0.6 mM), PEX13 FxxxF (0.46 mM) or PEX13 SH3-CTR (1 mM); 25 °C; 20 mM Tris pH 7.5, 50 mM NaCl; one-site binding model; PEX14 concentration corrected with the fit; triplicates
[3] = target: T1, PEX5 W2 peptide (human); test: as above
T1 construct: 15-mer with the W2 (di)aromatic motif of human PEX5; source: synthetic peptide, bought: PSL (Peptide Specialty Laboratories GmbH)

[4] = target: T2, PEX5 W4 peptide (human); test: as above
T2 construct: source: synthetic peptide, bought: PSL (Peptide Specialty Laboratories GmbH)

[5] = target: T3, PEX5 W3 peptide (human); test: as above
T3 construct: 15-mer with the W3 (di)aromatic motif of human PEX5; source: synthetic peptide, bought: PSL (Peptide Specialty Laboratories GmbH)

[6] = target: B9; test: NMR titration; 15N-labelled PEX13 construct (100 µM reference) with unlabelled ligand added; 1H,15N correlation spectra; 298 K; 20 mM Tris pH 7.5, 50 mM NaCl
[7] = target: T4, PEX13 SH3-CTR (residues 261-403) (human, UniProt Q92968 261-403); test: as above
T4 construct: 15N-labelled in the NMR titrations, unlabelled as ITC titrant; source: E. coli BL21 (DE3), purified (Ni-NTA, SUMO cleavage, reverse Ni-NTA, SEC); not shown: His6-SUMO, N-terminal, cleaved
T4 sequence (looked up): B8 chain with C73I, C116A

[8] = target: T2, PEX5 W4 peptide; test: NMR titration; reduced (2 mM TCEP) 15N PEX13-CTR IA/CC with 4x and 8x PEX5 W4; 1H,15N correlation spectra
[9] = target: T3, PEX5 W3 peptide; test: ITC; PEX13 SH3 (35-48 µM) in the cell, titrated with peptide; 25 °C; 20 mM Tris pH 7.5, 50 mM NaCl; one-site binding model; triplicates
[10] = target: T5, PEX5 W4 peptide (human); test: ITC; PEX14 (1-104) at 20-60 µM titrated with PEX5 W peptides or W0 (0.4-0.6 mM), PEX13 FxxxF (0.46 mM) or PEX13 SH3-CTR (1 mM); 25 °C; 20 mM Tris pH 7.5, 50 mM NaCl; one-site model; PEX14 concentration corrected with the fit; triplicates
T5 construct: 15-mer with the W4 WxxxY motif of human PEX5 (R183, Y185, Y188 printed); also called PEX5 W4 motif; source: synthetic peptide, bought: PSL (Peptide Specialty Laboratories)

[11] = target: T6, PEX5 W4 peptide (human); test: ITC; PEX13 SH3 (35-48 uM) in the cell, peptide or fragment in the syringe; 25 °C, 20 mM Tris pH 7.5, 50 mM NaCl; one-site binding model; single runs of triplicates and their averages
T6 construct: 15-mer with the W4 WxxxY motif of human PEX5 (R183, Y185, Y188 are named in the text); source: synthetic peptide, bought: PSL (Peptide Specialty Laboratories)

[12] = target: T7, PEX5 W2 peptide (human); test: as above
T7 construct: 15-mer with the W2 WxxxF motif of human PEX5; source: synthetic peptide, bought: PSL (Peptide Specialty Laboratories)

[13] = target: T8, PEX5 W3 peptide (human); test: as above
T8 construct: 15-mer with the W3 WxxxY motif of human PEX5; source: synthetic peptide, bought: PSL (Peptide Specialty Laboratories)

[14] = target: B14; test: ITC; PEX14 (1-104) (20-60 uM, concentration corrected with the fit) in the cell, peptide or fragment in the syringe; 25 °C, 20 mM Tris pH 7.5, 50 mM NaCl; one-site binding model; single runs of triplicates and their averages
[15] = target: B11; test: ITC; PEX13 SH3 (35-48 uM) in the cell, peptide or fragment in the syringe; 25 °C, 20 mM Tris pH 7.5, 50 mM NaCl; one-site binding model; single runs of triplicates and their averages
[16] = target: T6, PEX5 W4 peptide; test: ITC; PEX14 (1-104) (20-60 uM, concentration corrected with the fit) in the cell, peptide or fragment in the syringe; 25 °C, 20 mM Tris pH 7.5, 50 mM NaCl; one-site binding model; single runs of triplicates and their averages
[17] = target: T7, PEX5 W2 peptide; test: as above
[18] = target: T8, PEX5 W3 peptide; test: as above

## B1
[1]
  Kd: 26.9 µM
  stoichiometry N: 1

## B2
[1]
  Kd: 6.4 µM
  stoichiometry N: 1

## B3
[2]
  Kd: 0.0723 µM
  stoichiometry N: 1

## B4
[3]
  Kd: 0.0736 µM
[4]
  Kd: 3.14 µM
[5]
  Kd: 0.137 µM

## B5
[2]
  Kd: 0.0205 µM
  stoichiometry N: 1

## B6
[2]
  stoichiometry N: 1

## B7
[2]
  stoichiometry N: 1

## TRVPPPILPRPSQ (peptide, UniProt Q92968 49-61, looked up) [PEX13 PxxP peptide (49-61)]
[6]
  binding result: binds
[7]
  binding result: binds

## B8
[8]
  binding result: binds

## B9
[9]
  Kd: 102 µM

## B10
[10]
  Kd: 3.14 µM

## B11
[11]
  Kd: 44.9 µM and 48.5 µM and 36.9 µM
[12]
  Kd: 88.8 µM and 86.8 µM and 88.6 µM
[13]
  Kd: 112 µM and 92.3 µM

## B12
[14]
  Kd: 3.09 µM and 2.23 µM and 3.08 µM
  stoichiometry N: 1 sites
[15]
  Kd: 21.4 µM and 32.4 µM and 27 µM
  stoichiometry N: 1 sites

## B13
[14]
  Kd: 0.0751 µM and 0.0626 µM and 0.0791 µM and 0.0723 µM
  stoichiometry N: 1 sites

## B14
[16]
  Kd: 2.51 µM and 3.26 µM and 3.64 µM and 3.14 µM
[17]
  Kd: 0.0704 µM and 0.0691 µM and 0.0812 µM and 0.0736 µM
[18]
  Kd: 0.188 µM and 0.0975 µM and 0.124 µM and 0.137 µM

## B15
[14]
  Kd: 0.0172 µM and 0.0188 µM and 0.0255 µM and 0.0205 µM
  stoichiometry N: 1 sites

## B16
[14]
  stoichiometry N: 1 sites

## B17
[14]
  stoichiometry N: 1 sites
